The values below come from US20030105283A1.

The target of experiment [1] is IgE antibodies in pooled sera from patients (collection of sera from 10 patients showing high values in RAST method). Put plainly: RAST cross inhibition, pooled patient sera; competitor: MF-4 immobilised on solid phase.
For experiment [2] the target is unchanged. Put plainly: RAST cross inhibition, pooled patient sera; competitor: MF-1 immobilised on solid phase.
The target is the same in experiment [3]. Put plainly: RAST cross inhibition, pooled patient sera; competitor: MF-2 immobilised on solid phase.

B1: purified antigenic protein MF-2 (protein)
chain: EIGSTIPNATFAYVPYSPELEDHKVCGMPTSFQSHERWKGKKVVIVAVPGAFTPTCTANHVPPYVEKIQELKSKGVDEVVVISANDPFVLSAWGITEHAKDNLTFAQDVNCEFSKHFNATLDLSSKGMGLRTARYALIANDLKVEYFGIDEGEPKQSSAATVLSKL
modifications: N-terminus blocked
As a reminder, the IC50 is the concentration needed to halve the response being measured. A low value points to higher potency. Consider B1, for which the IC50 turned out to be 30 µg/mL in experiment [1], 8.6 µg/mL in experiment [2] and 0.013 µg/mL in experiment [3]. The relative concentration for 50% inhibition (in brackets; homologous antigen = 1) was 480 in experiment [1], 230 in experiment [2] and 1 in experiment [3].

B2: purified antigenic protein MF-1 (protein)
chain: PGDPTATAKGNEIPDTLMGYIPWTPELDSGEVCGIPTTFKTRDEWKGKKVVIVSIPGAYTPICHQQHIPPLVKRVDELKAKGVDAVYVIASNDPFVMAAWGNFNNAKDKVVFATDIDLAFSKALGATIDLSAKHFGERTARYALIIDDNKIVDFASDEGDTGKLQNASIDTILTKV
Take B2: the IC50 in experiment [1] was 18 µg/mL; in experiment [2] it was 0.038 µg/mL; in experiment [3], greater than 100 µg/mL. The figures for the relative concentration for 50% inhibition (in brackets; homologous antigen = 1) in experiment [1], in experiment [2] and in experiment [3] were 290, 1 and greater than 7700, respectively.
